Test system: lupus anticoagulants
Test: PTT-LA Screen, lupus patient case study
Format: in vivo, human
Conditions: coinciding with the first IV infusion, before the protocol; reference range <=40 sec
Procedure: On Jan. 5, 2023, the invention was administered to a person who was previously diagnosed in July 2019 with the autoimmune disease Lupus. This diagnosis was validated through a complete ANA Screen blood test panel conducted in July and subsequently in August of 2019 for a second confirmation. The patient was on standard therapies and medications typically prescribed for Lupus until December 2022, during which their symptoms progressively deteriorated. Of note, the patient voluntarily ceased all standard treatments for Lupus and other related auto-immune diseases one month prior to commencing the invention, under the supervision of their treating rheumatologist of the Arthritis & Rheumatic Disease Specialties center.
PTT-LA Screen: Tests for the presence of lupus anticoagulants, which are antibodies that can interfere with blood clotting and are commonly found in lupus patients.

## Inflectra: intravenous (IV) infusion treatment, a monoclonal antibody used to treat a range of inflammatory autoimmune diseases
  PTT-LA levels: significant spike

From patent US20250325622A1, “Autoimmune Disease Modulation Protocol” (priority 2024, published 2025)
